Measurements reported in publication PMC3534962.

What was measured:
[1] = co-immunoprecipitation with Flag-PFK1; details: glycan gained; control: WT Flag-PFK1 without OGT overexpression
[2] = native gel electrophoresis of immunopurified Flag-PFK1; details: glycan gained; control: Flag-PFK1 from untreated 293T cells
colorimetric NADPH assay = details: glycan lost; control: WT PFK1 H1299 knock-in cells
[3] = GSH level under hypoxic conditions; details: glycan lost; control: WT PFK1 H1299 knock-in cells, hypoxia
[4] = [1,2-13C]-glucose labelling, LC-MS; details: glycan lost; control: WT PFK1 H1299 knock-in cells
[5] = NADPH level under hypoxic conditions; details: glycan lost; control: WT PFK1 H1299 knock-in cells, hypoxia
[6] = monochlorobimane fluorimetric GSH assay; details: glycan lost; control: WT PFK1 H1299 knock-in cells
[7] = 14CO2 release from [1-14C]- vs [6-14C]-glucose; details: glycan lost; control: WT PFK1 H1299 knock-in cells
[8] = co-immunoprecipitation after OGT overexpression; details: glycan lost; control: WT Flag-PFK1
[9] = proliferation with and without OGT overexpression; details: glycan lost; control: WT PFK1 H1299 knock-in cells, hypoxia
[10] = glycolytic rate with and without OGT overexpression; details: glycan lost; control: WT PFK1 H1299 knock-in cells
[11] = lactate production with and without OGT overexpression; details: glycan lost; control: WT PFK1 H1299 knock-in cells
[12] = untargeted flow-injection mass spectrometry metabolite profiling; details: glycan lost; control: WT PFK1 H1299 knock-in cells

Row | Protein | oligomerisation [1] | oligomerisation [2] | other: OGT-induced increase in NADPH, fold_change (colorimetric NADPH assay) | other: cellular GSH level [3] | other: OGT-induced increase in PPP flux, fold_change [4] | other: cellular NADPH level [5] | other: OGT-induced increase in GSH, fold_change [6] | other: OGT-induced increase in PPP flux [7] | other: OGT-induced loss of subunit co-immunoprecipitation [8] | other: OGT-induced increase in proliferation [9] | other: OGT-induced decrease in glycolytic rate, other: percent decrease [10] | other: OGT-induced decrease in lactate production, other: percent decrease [11] | other: steady-state metabolite concentrations [12]
1 | phosphofructokinase 1 (PFK1): OGT overexpression (protein) parent chain: MAAVDLEKLRASGAGKAIGVLTSGGDAQGMNAAVRAVTRMGIYVGAKVFLIYEGYEGLVEGGENIKQANWLSVSNIIQLGGTIIGSARCKAFTTREGRRAAAYNLVQHGITNLCVIGGDGSLTGANIFRSEWGSLLEELVAEGKISETTARTYSHLNIAGLVGSIDNDFCGTDMTIGTDSALHRIMEVIDAITTTAQSHQRTFVLEVMGRHCGYLALVSALASGADWLFIPEAPPEDGWENFMCERLGETRSRGSRLNIIIIAEGAIDRNGKPISSSYVKDLVVQRLGFDTRVTVLGHVQRGGTPSAFDRILSSKMGMEAVMALLEATPDTPACVVTLSGNQSVRLPLMECVQMTKEVQKAMDDKRFDEATQLRGGSFENNWNIYKLLAHQKPPKEKSNFSLAILNVGAPAAGMNAAVRSAVRTGISHGHTVYVVHDGFEGLAKGQVQEVGWHDVAGWLGRGGSMLGTKRTLPKGQLESIVENIRIYGIHALLVVGGFEAYEGVLQLVEARGRYEELCIVMCVIPATISNNVPGTDFSLGSDTAVNAAMESCDRIKQSASGTKRRVFIVETMGGYCGYLATVTGIAVGADAAYVFEDPFNIHDLKVNVEHMTEKMKTDIQRGLVLRNEKCHDYYTTEFLYNLYSSEGKGVFDCRTNVLGHLQQGGAPTPFDRNYGTKLGVKAMLWLSEKLREVYRKGRVFANAPDSACVIGLKKKAVAFSPVTELKKDTDFEHRMPREQWWLSLRLMLKMLAQYRISMAAYVSGELEHVTRRTLSMDKGF | decreases | decreases |  |  |  |  |  |  |  |  |  |  | 
2 | phosphofructokinase 1 (PFK1): PUGNAc (protein) parent chain: MAAVDLEKLRASGAGKAIGVLTSGGDAQGMNAAVRAVTRMGIYVGAKVFLIYEGYEGLVEGGENIKQANWLSVSNIIQLGGTIIGSARCKAFTTREGRRAAAYNLVQHGITNLCVIGGDGSLTGANIFRSEWGSLLEELVAEGKISETTARTYSHLNIAGLVGSIDNDFCGTDMTIGTDSALHRIMEVIDAITTTAQSHQRTFVLEVMGRHCGYLALVSALASGADWLFIPEAPPEDGWENFMCERLGETRSRGSRLNIIIIAEGAIDRNGKPISSSYVKDLVVQRLGFDTRVTVLGHVQRGGTPSAFDRILSSKMGMEAVMALLEATPDTPACVVTLSGNQSVRLPLMECVQMTKEVQKAMDDKRFDEATQLRGGSFENNWNIYKLLAHQKPPKEKSNFSLAILNVGAPAAGMNAAVRSAVRTGISHGHTVYVVHDGFEGLAKGQVQEVGWHDVAGWLGRGGSMLGTKRTLPKGQLESIVENIRIYGIHALLVVGGFEAYEGVLQLVEARGRYEELCIVMCVIPATISNNVPGTDFSLGSDTAVNAAMESCDRIKQSASGTKRRVFIVETMGGYCGYLATVTGIAVGADAAYVFEDPFNIHDLKVNVEHMTEKMKTDIQRGLVLRNEKCHDYYTTEFLYNLYSSEGKGVFDCRTNVLGHLQQGGAPTPFDRNYGTKLGVKAMLWLSEKLREVYRKGRVFANAPDSACVIGLKKKAVAFSPVTELKKDTDFEHRMPREQWWLSLRLMLKMLAQYRISMAAYVSGELEHVTRRTLSMDKGF |  | decreases |  |  |  |  |  |  |  |  |  |  | 
3 | phosphofructokinase 1 (PFK1): S529A (protein) parent chain: MAAVDLEKLRASGAGKAIGVLTSGGDAQGMNAAVRAVTRMGIYVGAKVFLIYEGYEGLVEGGENIKQANWLSVSNIIQLGGTIIGSARCKAFTTREGRRAAAYNLVQHGITNLCVIGGDGSLTGANIFRSEWGSLLEELVAEGKISETTARTYSHLNIAGLVGSIDNDFCGTDMTIGTDSALHRIMEVIDAITTTAQSHQRTFVLEVMGRHCGYLALVSALASGADWLFIPEAPPEDGWENFMCERLGETRSRGSRLNIIIIAEGAIDRNGKPISSSYVKDLVVQRLGFDTRVTVLGHVQRGGTPSAFDRILSSKMGMEAVMALLEATPDTPACVVTLSGNQSVRLPLMECVQMTKEVQKAMDDKRFDEATQLRGGSFENNWNIYKLLAHQKPPKEKSNFSLAILNVGAPAAGMNAAVRSAVRTGISHGHTVYVVHDGFEGLAKGQVQEVGWHDVAGWLGRGGSMLGTKRTLPKGQLESIVENIRIYGIHALLVVGGFEAYEGVLQLVEARGRYEELCIVMCVIPATISNNVPGTDFSLGSDTAVNAAMESCDRIKQSASGTKRRVFIVETMGGYCGYLATVTGIAVGADAAYVFEDPFNIHDLKVNVEHMTEKMKTDIQRGLVLRNEKCHDYYTTEFLYNLYSSEGKGVFDCRTNVLGHLQQGGAPTPFDRNYGTKLGVKAMLWLSEKLREVYRKGRVFANAPDSACVIGLKKKAVAFSPVTELKKDTDFEHRMPREQWWLSLRLMLKMLAQYRISMAAYVSGELEHVTRRTLSMDKGF |  |  | abolishes | decreases | abolishes | decreases | decreases | abolishes | abolishes | abolishes | abolishes | abolishes | decreases
